In publication PMC5651189:

Biological target: PKA regulatory subunit RIIα (human (endogenous in SK-Br-3)) (UniProt P13861)
Assay: proximity ligation

Sequence of PKA regulatory subunit RIIα (human (endogenous in SK-Br-3)) (P13861 whole entry): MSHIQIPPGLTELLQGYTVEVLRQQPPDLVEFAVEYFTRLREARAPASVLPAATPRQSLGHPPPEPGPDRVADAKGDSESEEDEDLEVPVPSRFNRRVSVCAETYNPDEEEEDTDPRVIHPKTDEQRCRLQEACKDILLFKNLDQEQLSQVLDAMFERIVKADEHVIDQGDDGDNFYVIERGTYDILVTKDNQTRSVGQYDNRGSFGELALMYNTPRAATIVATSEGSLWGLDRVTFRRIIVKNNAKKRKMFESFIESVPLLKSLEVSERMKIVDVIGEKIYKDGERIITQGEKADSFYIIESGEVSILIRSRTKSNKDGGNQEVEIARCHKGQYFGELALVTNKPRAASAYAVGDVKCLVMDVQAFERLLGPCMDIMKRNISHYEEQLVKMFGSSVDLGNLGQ

decrease of CICF in SK.tDp^T39A against SK.empty cells: 67%
increase of CICF in SK.tDp against SK.empty cells: 36%
Substance: PKA catalytic subunit (PKAc) (from UniProt P17612 1-351) (enzyme)
